{"source": "patent US20230071765A1", "about": "“COMPOSITIONS HAVING THIOREDOXIN ACTIVITY AND RELATED METHODS” (ORPRO THERAPEUTICS, INC., priority 2020, published 2023)", "molecules": {"B1": {"name": "ORP100S: thioredoxin with monothiol active site, Cys35 and non-active Cys 62, 69 and 73 substituted with serine (SEQ ID NO:29) (protein)", "chain": "MVKQIESKTAFQEALDAAGDKLVVVDFSATWCGPSKMIKPFFHSLSEKYSNVIFLEVDVDDSQDVASESEVKSMPTFQFFKKGQKVGEFSGANKEKLEATINELV", "modifications": "synthetic peptide motif"}}, "key": {"[1]": {"system": "primary HBE cells from healthy non-CF donors", "test": "μOCT of MCT rate and CBF in non-CF primary HBE cells", "format": "cell-based, human", "text": "Primary human bronchial epithelial (HBE) cells were derived from lung explants from healthy failed donors and CF patients homozygous for F508del CFTR. […]\nOne-micron resolution spectral domain μOCT was used to obtain measurements of mucociliary transport (MCT) rate and ciliary beat frequency (CBF) in HBE monolayers and of MCT rate of sputum ex vivo. This first-in-kind, high-speed (40 frames per second, 512 lines per frame) microscopic reflectance imaging modality enables simultaneous anatomic imaging in cell cultures and intact tissues that readily distinguishes the properties of CF compared to normal epithelia (Liu L, Chu K K, Houser G H, Diephuis B J, Li Y, Wilsterman E J, Shastry S, Dierksen G, Birket S E, Mazur M, et al., 2013, Method for quantitative study of airway functional microanatomy using micro-optical coherence tomography, PLoS One 8(1):e54473; Tuggle K L, Birket S E, Cui X, Hong J, Warren J, Reid L, Chambers A, Ji D, Gamber K, Chu K K, et al., 2014, Characterization of defects in ion transport and tissue development in Cystic Fibrosis Transmembrane Conductance Regulator (CFTR)-knockout rats. […] Images were captured, and MCT rate and CBF calculated, as described in the preceding references."}, "[2]": {"system": "CF patient sputum on wild type rat trachea", "test": "CF sputum transport ex vivo on excised rat trachea (μOCT)", "parameters": "species or system human sputum", "protocol": "To determine the effect of ORP100S on CF sputum transportability, sputum specimens spontaneously expectorated from 4 CF patients hospitalized for pulmonary exacerbation were collected and stored at 4° C. before being divided into 200 μL aliquots and treated with ORP100S (3 mM), PBS, DTT (1.6 mM), or DNase (10 or 25 μg/ml) on the day of or day following collection. Upon treatment, sputum aliquots were placed in a 37° C. water bath for 2 hrs and then applied (3 μl per sample) for μOCT imaging to the distal end of trachea excised from adult non-CF rats. Trachea were washed 2× with 500 μl of PBS before sputum addition. Sample conditions were applied in triplicate in random order at distinct anatomic locations—2 washes using 500 μl of PBS were performed between each sample addition—and at least 3 images were collected from each region of interest. Confirmation of trachea viability was obtained by imaging with PBS upon completion of the experiment.\nOne-micron resolution spectral domain μOCT was used to obtain measurements of mucociliary transport (MCT) rate and ciliary beat frequency (CBF) in HBE monolayers and of MCT rate of sputum ex vivo. This first-in-kind, high-speed (40 frames per second, 512 lines per frame) microscopic reflectance imaging modality enables simultaneous anatomic imaging in cell cultures and intact tissues that readily distinguishes the properties of CF compared to normal epithelia (Liu L, Chu K K, Houser G H, Diephuis B J, Li Y, Wilsterman E J, Shastry S, Dierksen G, Birket S E, Mazur M, et al., 2013, Method for quantitative study of airway functional microanatomy using micro-optical coherence tomography, PLoS One 8(1):e54473; Tuggle K L, Birket S E, Cui X, Hong J, Warren J, Reid L, Chambers A, Ji D, Gamber K, Chu K K, et al., 2014, Characterization of defects in ion transport and tissue development in Cystic Fibrosis Transmembrane Conductance Regulator (CFTR)-knockout rats. PLoS One 9(3):e91253). In addition to MCT rate and CBF, μOCT also has the capability to assess physical characteristics of the airway surface liquid. Images were captured, and MCT rate and CBF calculated, as described in the preceding references.\nThe effect of ORP100S on mucus clearance using intact rat trachea, which include the complexities of the airway surface such as gland expression of a fully differentiated mucosal surface, was further evaluated. […] MCT was measured by projecting a cross-sectional line through the mucus through time, with the slope of the particle trajectories indicating velocity. […]"}, "Sprague-Dawley rats": {"system": "Sprague-Dawley rats", "test": "nebulized aerosol inhalation in rats, inflammatory potential and toxicity", "format": "in vivo, rat", "protocol": "This example evaluated and compared the in vivo inflammatory potential among three forms of C35S monothiol Trx (oxidized ORP-100, reduced ORP-100, and reduced ORP100S) formulated in the sucrose/EDTA formulation composition described in PCT WO 2006/090127 and delivered to normal rats as nebulized aerosols at doses of […] and 40 mg/kg.\nAll three forms of ORP-100 were lyophilized following reduction with DTT and formulated in sucrose buffer (9% sucrose 1.17 mM EDTA pH 5.2). All test articles were evaluated at low (10 mg/kg) and high (40 mg/kg) target delivered doses. The test articles were administered to Charles River Sprague-Dawley rats via inhalation as an aerosol. The aerosol of each of the test articles was produced by a commercially available vibrating mesh nebulizer whose output was attached to a nose-only exposure system.\nTarget doses were achieved via modulation of the aerosol exposure time while maintaining the aerosol concentration constant. Animals in Low Dose groups received a single dose of test article during a 20 minute exposure to achieve a target delivered dose of 10 mg/kg and deposited dose of 1 mg/kg. Animals in High Dose groups received a single dose of test article during a 75 minute exposure to achieve a target delivered dose of 40 mg/kg and target deposited dose of 4 mg/kg.\nAnimals in each study group were evaluated for potential toxicity by measuring various parameters including: clinical signs, body weight, clinical pathology (BALF cell counts, LDH and albumin measurements), lung tissue cytokines, lung weights, gross pathology, and microscopic pathology of respiratory target tissues. Additionally, three animals in each Low Dose group had lung tissues collected for immunohistochemistry (Alizèe Pathology, Thurmont, M D). Three (3) animals in each Low Dose group were to be euthanized at 1 hour and 4 hours post exposure for blood and tissue collections. Four (4) animals in each High Dose group were euthanized at 4 and 20 hours post exposure for blood and tissue collections."}}, "data": [{"molecule": "B1", "values": [{"measurement": "CBF", "setting": "[1]; 3 hrs post treatment", "value": "no meaningful differences"}, {"measurement": "MCT rate", "setting": "[1]; 3 hrs post-treatment, ORP100S 1-3 mM, DTT 1.6 mM, PBS 0.05±0.007, mean±SE", "value": "2.18±0.3", "unit": "mm/min"}, {"measurement": "sputum density vs. PBS-treated sputum", "setting": "[2]; 3 mM, μOCT images", "value": "effective in decreasing sputum density"}, {"measurement": "change in MCT rate normalized to the effect of PBS", "setting": "[2]; sputum treated 2 hrs, ORP100S 3 mM, DTT 1.6 mM, DNase 10 or 25 μg/ml", "value": "3.80±0.35", "unit": "fold vs. PBS"}, {"measurement": "MCT rate of treated sputum", "setting": "[2]; sputum treated 2 hrs, ORP100S 3 mM, DTT 1.6 mM, DNase 10 or 25 μg/ml, PBS 0.97±0.17", "value": "4.68±0.9", "unit": "mm/min"}, {"measurement": "differences in BALF LDH, albumin, cell counts, differential counts and lung tissue cytokines vs. oxidized ORP-100 control groups", "setting": "Sprague-Dawley rats; low and high dose aerosol", "value": "unremarkable"}, {"measurement": "neutrophil influx (sucrose/EDTA formulation effect)", "setting": "Sprague-Dawley rats; sucrose/EDTA formulation, nebulized aerosol", "value": "abrogated neutrophil influx almost completely"}, {"measurement": "adverse test article effects (clinical observations, BALF chemistry, cell count, differential, lung cytokines, macroscopic and microscopic findings)", "setting": "Sprague-Dawley rats; target delivered doses 10 mg/kg and 40 mg/kg, aerosol, 1, 4 or 20 hours post exposure", "value": "no evidence of adverse test article effects"}]}]}
